Patent US20250197503A1 (SHANGHAI INSTITUTE OF MATERIA MEDICA CHINESE ACADEMY OF …, published 2025)
Where a chain is given by its changes, count along the chain named.

B1: h_Nb12 VHH (VHH)
VHH: DVQLQESGGGLVQAGGSLRLSCAASGRTFSSRAMGWFRQAPGKEREFVAAISGSGRNTYYADSVKGRFTISRDNAKNSVNLQMNSLKPEDTAVYYCNAAGGGITIATMTQRTQYDYWGQGTQVTVSS
B2: h_Nb2 VHH (VHH)
VHH: DVQLQESGGGLVQPGGSLRLSCAASGFTFGDRWMYWLRQAPGKGLEWVSSINPAGRSTYYADSVKGRFTISRDNAKNTLYLQMNSLKSEDTAVYYCTKDPGGYQKGQGTQVTVSS
B3: h_Nb4 VHH (VHH)
VHH: DVQLQESGGGLVQAGGSLRLSCAAPSRMFSGYTMGWYRQAPGKQRELVAQIANGGFTDYIDSVKGRFSISRDTVLNMMYLQMNSLKPEDTAVYYCNLVLVNGIPTRNWGQGTQVTVSS
B4: h_Nb30 VHH (VHH)
VHH: DVQLQESGGGLVQPGESLRVSCAASGFTFSNYYMTWVRQAPGKGLEWVSFLNPSSSERFYADSVKGRFTISRDNAKNTLDLLMHSLKPEDTALYYCARHLKYNWAPNYDYWGQGTQVTVSS
B5: h_Nb5 VHH (VHH)
VHH: DVQLQESGGGAVQSGESLRLSCAASGRDLMFYDVAWFRQAPGKEREGVSYIRSSGTLTKYADSVKGRFTISRDNDKNTVSLQMNSLNPEDTAKYYCAARLQSATSHSDLREDEFNSWGQGTQVTVSS
B6: h_Nb9 VHH (VHH)
VHH: DVQLQESGGGLVQPGGSLRLSCASSGSIFGLGVKGWYRQPPGNQREMVAQIISGGRISYADSVKGRFTISRDNAKNTVYLQMNSLKPEDTAVYYCNAWGPGQRNYWGRGTQVTVSS
B7: h_Nb26 VHH (VHH)
VHH: DVQLQESGGGLVQPGGSLRLSCAAPGSIFRINAMGWYRQAPGKQRELVAAITSGGSTNYADSVQGRFTISRDNAKNTVYLQMNSLKPEDTAVYYCNVERRRPPHYYSDYDFDWGQGTQVTVSS
B8: h_Nb1 (expressed from pFUSE-hIgG1-Fc) (Fc fusion)
chain: DVQLQESGGGLVQPGGSLRLSCAASGFTFSSYAMSWVRQAPGKGLEWVSDINSGGDNTDYADSVKGRFTISRDNAKNTLYLQMNSLKPEDTAVYYCARGPKLCFSSWGQGTQVTVSS
notes: Candidates were cloned into pFUSE-mIgG2b-Fc and pFUSE-hIgG1-Fc; not shown: human IgG1 Fc as encoded by the pFUSE-hIgG1-Fc vector
B9: h_Nb12 (expressed from pFUSE-hIgG1-Fc) (Fc fusion)
chain: B1 VHH
notes: not shown: human IgG1 Fc as encoded by the pFUSE-hIgG1-Fc vector
B10: h_Nb2 (expressed from pFUSE-hIgG1-Fc) (Fc fusion)
chain: B2 VHH
notes: as for B8
B11: h_Nb4 (expressed from pFUSE-hIgG1-Fc) (Fc fusion)
chain: B3 VHH
notes: as for B9
B12: h_Nb6 (expressed from pFUSE-hIgG1-Fc) (Fc fusion)
chain: DVQLQESGGGLAQPGGSLRLSCAASGFTFSSYAMSWARQAPGKGLEWVAGIYRGGSDTYYADSVKGRFTISRDNTKNTLYLQMNSLKPEDTALYYCIQGWGLGYANYDYWGQGTQVTVSS
notes: as for B9
B13: h_Nb5 (expressed from pFUSE-hIgG1-Fc) (Fc fusion)
chain: B5 VHH
notes: as for B9
B14: h_Nb9 (expressed from pFUSE-hIgG1-Fc) (Fc fusion)
chain: B6 VHH
notes: as for B9
B15: h_Nb13 (expressed from pFUSE-hIgG1-Fc) (Fc fusion)
chain: B7 VHH with P25S, R30S, Q44S, Q64K, N73T, Q81L, K86E, Y106L, D108E
notes: as for B9
B16: h_Nb26 (expressed from pFUSE-hIgG1-Fc) (Fc fusion)
chain: B7 VHH
notes: as for B9

molecular target: T1, human PD-L1 protein (ELISA antigen) (human, UniProt Q9NZQ7 19-238, limits assumed); assay: ELISA; PD-L1 protein on NeutrAvidin plate, crude nanobody, anti-HA detection; positive = absorbance more than three times control
T1 construct: also called PD-L1-biotin protein
Description: After several rounds of panning, TG1 competent cells in the logarithmic phase of growth were infected with the eluted phages, gradiently diluted and spread on the plate for overnight culture. 96 clones were picked and inoculated into a 96-well round-bottom plate with 100 μL of culture medium per well and left to be incubated overnight as the master plate. Then 10 μL of overnight cultured bacterial solution was pipetted into a 96-well deep-bottom plate with 1 mL of culture medium per well to induce nanobody expression which was then subjected to crude purification. The 96-well ELISA plate was coated with 5 μg/mL NeutrAvidin solution at 4° C., 700 rpm, overnight. The next day, 2% skim milk powder was added to block the plate at room temperature and washed 3 times with a solution containing bovine serum albumin BSA. 100 μL 3 μg/mL PD-L1 protein was added and incubated at room temperature for 30 minutes, then washed. The crudely extracted nanobody was added and incubated at room temperature for 1 h followed by washing. Mouse anti-HA primary antibody was added and the mixture was incubated at room temperature for 1 hour followed by washing. Goat anti-mouse alkaline phosphatase-labeled secondary antibody was added and the mixture was incubated at room temperature for 1 hour followed by washing. Alkaline phosphatase colorimetric solution was added for 10 minutes, and the absorption value was detected at 405 nm on a microplate reader. A well with an absorption value that is more than three times the absorption value of the control group is preliminarily determined as a positive well. The positive clones were transferred to a shaking tube for culture in order to extract the plasmid and then subjected to sequencing. Finally, 11 candidate positive clones were obtained.

T1 sequence (Q9NZQ7 19-238 limits assumed): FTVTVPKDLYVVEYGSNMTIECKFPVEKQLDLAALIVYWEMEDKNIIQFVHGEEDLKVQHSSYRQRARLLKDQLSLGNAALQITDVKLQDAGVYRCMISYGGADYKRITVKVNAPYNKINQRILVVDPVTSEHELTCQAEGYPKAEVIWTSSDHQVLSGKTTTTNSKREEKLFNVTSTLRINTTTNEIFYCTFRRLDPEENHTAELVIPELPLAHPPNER

Binding result, binds:
B1
B2
B3
B4
B5
B6
B7

molecular target: T2, human PD-L1 on stably transfected cell line HEK293T/hPD-L1 (human, UniProt Q9NZQ7 19-290); assay: flow cytometry on HEK293T/hPD-L1 cells, 10 ug/ml nanobody, anti-human IgG Fc (FITC)
T2 construct: whole, on cells
Description: The stably transfected cell line HEK293T/hPD-L1 was digested and centrifuged, and the supernatant was removed. The cells were washed once with PBS and the cell density was adjusted to 2.5×10⁶ cells/mL. 100 μL of cell suspension was added to each cell sample, i.e., 2.5×10⁵ cells/sample. Different anti-human PD-L1 candidate nanobodies (at a concentration of 10 μg/ml) were added into the samples. The samples were incubated in a 4° C. refrigerator for 20 min and then centrifuged to remove the supernatant, and washed once with PBS. The diluted antibody anti-human IgG Fc (FITC) was used as a secondary antibody to resuspend the above cells. The abtained samples were incubated in a 4° C. refrigerator for 20 min and centrifuged to remove the supernatant. The cells were washed twice with PBS, transferred to a flow tube; and detected on a flow cytometer to obtain the binding activity of the candidate nanobody with human PD-L1, as shown in FIG. 1.

T2 sequence (Q9NZQ7 19-290): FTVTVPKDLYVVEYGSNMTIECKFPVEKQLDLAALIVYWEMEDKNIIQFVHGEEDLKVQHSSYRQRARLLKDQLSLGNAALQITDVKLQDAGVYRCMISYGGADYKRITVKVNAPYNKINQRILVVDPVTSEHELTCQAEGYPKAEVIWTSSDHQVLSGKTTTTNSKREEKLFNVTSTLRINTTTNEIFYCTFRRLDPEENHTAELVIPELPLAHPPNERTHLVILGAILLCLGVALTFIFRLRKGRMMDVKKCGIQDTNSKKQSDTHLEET

Binding result, binds:
B8
B9
B10
B11
B12
B13
B14
B15
B16
